Experiments:
[1] = system: PSMA-expressing LNCaP cancer xenografts; conditions: mouse, in vivo
in vivo = conditions: male, NODSCID 1L2RγKO, mouse, iv, total radioactivity; for excreta dose per gram or mL at 1 h: Urine uptake

| Structure (SMILES) | Blood: Salivary ratio [1] | Tumor: Blood ratio [1] | Tumor: Kidney ratio [1] | Tumor: Muscle ratio [1] | Tumor: Salivary ratio [1] | tissue uptake at 1 h (in vivo; Adrenal glands uptake) | tissue uptake at 1 h (in vivo; Blood uptake) | tissue uptake at 1 h (in vivo; Bone uptake) | tissue uptake at 1 h (in vivo; Brain uptake) | tissue uptake at 1 h (in vivo; Fat uptake) | tissue uptake at 1 h (in vivo; Heart uptake) | tissue uptake at 1 h (in vivo; Intestine uptake) | tissue uptake at 1 h (in vivo; Kidneys uptake) | tissue uptake at 1 h (in vivo; Lacrimal uptake) | tissue uptake at 1 h (in vivo; Liver uptake) | tissue uptake at 1 h (in vivo; Lungs uptake) | tissue uptake at 1 h (in vivo; Muscle uptake) | tissue uptake at 1 h (in vivo; Pancreas uptake) | tissue uptake at 1 h (in vivo; Salivary uptake) | tissue uptake at 1 h (in vivo; Seminal uptake) | further results |
| --- | --- | --- | --- | --- | --- | --- | --- | --- | --- | --- | --- | --- | --- | --- | --- | --- | --- | --- | --- | --- | --- |
| O=C(O)C[C@H](NC(=O)N[C@@H](CCCCNC(=O)[C@H](Cc1c2ccccc2cc2ccccc12)NC(=O)[C@H]1CC[C@H](CNC(=O)CN2CCN(CC(=O)O)CCN(CC(=O)O)CCN(CC(=O)O)CC2)CC1)C(=O)O)C(=O)O [68Ga-HTK03161, metal not drawn] | 5.08 ± 0.62 | 11.4 ± 1.73 | 3.03 ± 0.84 | 89.4 ± 36.1 | 57.2 ± 7.11 | 0.41 ± 0.07 %ID/g | 1.13 ± 0.19 %ID/g | 0.11 ± 0.02 %ID/g | 0.02 %ID/g | 0.15 ± 0.04 %ID/g | 0.32 ± 0.05 %ID/g | 0.31 ± 0.09 %ID/g | 4.41 ± 1.26 %ID/g | 0.12 ± 0.06 %ID/g | 0.28 ± 0.05 %ID/g | 0.75 ± 0.13 %ID/g | 0.15 ± 0.04 %ID/g | 0.18 ± 0.03 %ID/g | 0.23 ± 0.05 %ID/g | 6.22 ± 12.2 %ID/g | tissue uptake at 1 h (in vivo; Spleen uptake): 0.27 ± 0.06 %ID/g; tissue uptake at 1 h (in vivo; Stomach uptake): 0.1 ± 0.04 %ID/g; tissue uptake at 1 h (in vivo; Tail uptake): 0.55 ± 0.1 %ID/g; tissue uptake at 1 h (in vivo; Testes uptake): 0.54 ± 0.51 %ID/g; tissue uptake at 1 h (in vivo; Thyroid uptake): 0.29 ± 0.05 %ID/g; tissue uptake at 1 h (in vivo; Tumor uptake): 12.7 ± 1.91 %ID/g; excreta dose per gram or mL at 1 h (in vivo): 363 ± 155 %ID/g |
| O=C(O)CCC[C@H](NC(=O)N[C@@H](CCCCNC(=O)[C@H](Cc1ccc2ccccc2c1)NC(=O)[C@H]1CC[C@H](CNC(=O)CN2CCN(CC(=O)O)CCN(CC(=O)O)CCN(CC(=O)O)CC2)CC1)C(=O)O)C(=O)O [68Ga-HTK03169, metal not drawn] | 4.39 ± 2.06 | 6.09 ± 2.24 | 1.47 ± 0.16 | 47.1 ± 12.3 | 23.2 ± 1.91 | 0.24 ± 0.08 %ID/g | 0.63 ± 0.36 %ID/g | 0.08 ± 0.03 %ID/g | 0.02 ± 0.01 %ID/g | 0.09 ± 0.04 %ID/g | 0.14 ± 0.07 %ID/g | 0.23 ± 0.16 %ID/g | 2.18 ± 0.48 %ID/g | 0.13 ± 0.06 %ID/g | 0.21 ± 0.16 %ID/g | 0.38 ± 0.17 %ID/g | 0.08 ± 0.05 %ID/g | 0.11 ± 0.05 %ID/g | 0.14 ± 0.03 %ID/g | 3.83 ± 2.93 %ID/g | tissue uptake at 1 h (in vivo; Spleen uptake): 0.13 ± 0.06 %ID/g; tissue uptake at 1 h (in vivo; Stomach uptake): 0.09 ± 0.11 %ID/g; tissue uptake at 1 h (in vivo; Tail uptake): 0.48 ± 0.2 %ID/g; tissue uptake at 1 h (in vivo; Testes uptake): 0.13 ± 0.07 %ID/g; tissue uptake at 1 h (in vivo; Thyroid uptake): 0.16 ± 0.07 %ID/g; tissue uptake at 1 h (in vivo; Tumor uptake): 3.19 ± 0.7 %ID/g; excreta dose per gram or mL at 1 h (in vivo): 421 ± 187 %ID/g |
| O=C(O)CSC[C@H](NC(=O)N[C@@H](CCCCNC(=O)[C@H](Cc1c2ccccc2cc2ccccc12)NC(=O)[C@H]1CC[C@H](CNC(=O)CN2CCN(CC(=O)O)CCN(CC(=O)O)CCN(CC(=O)O)CC2)CC1)C(=O)O)C(=O)O [68Ga-HTK03177, metal not drawn] | 3.14 ± 0.19 | 36.1 ± 12.5 | 3.25 ± 1.16 | 220 ± 135 | 112 ± 33.1 | 0.46 ± 0.17 %ID/g | 0.7 ± 0.06 %ID/g | 0.1 ± 0.03 %ID/g | 0.02 %ID/g | 0.09 ± 0.04 %ID/g | 0.21 ± 0.01 %ID/g | 0.21 ± 0.02 %ID/g | 7.76 ± 1 %ID/g | 0.12 ± 0.06 %ID/g | 0.33 ± 0.2 %ID/g | 0.61 ± 0.08 %ID/g | 0.18 ± 0.18 %ID/g | 0.14 ± 0.01 %ID/g | 0.22 ± 0.02 %ID/g | 0.28 ± 0.38 %ID/g | tissue uptake at 1 h (in vivo; Spleen uptake): 0.42 ± 0.15 %ID/g; tissue uptake at 1 h (in vivo; Stomach uptake): 0.15 ± 0.09 %ID/g; tissue uptake at 1 h (in vivo; Tail uptake): 0.74 ± 0.12 %ID/g; tissue uptake at 1 h (in vivo; Testes uptake): 0.25 ± 0.07 %ID/g; tissue uptake at 1 h (in vivo; Thyroid uptake): 0.23 ± 0.01 %ID/g; tissue uptake at 1 h (in vivo; Tumor uptake): 24.7 ± 6.85 %ID/g; excreta dose per gram or mL at 1 h (in vivo): 400 ± 262 %ID/g |
| O=C(O)COC[C@H](NC(=O)N[C@@H](CCCCNC(=O)[C@H](Cc1c2ccccc2cc2ccccc12)NC(=O)[C@H]1CC[C@H](CNC(=O)CN2CCN(CC(=O)O)CCN(CC(=O)O)CCN(CC(=O)O)CC2)CC1)C(=O)O)C(=O)O [68Ga-HTK03187, metal not drawn] | 4.27 ± 0.74 | 32.2 ± 8.53 | 7.67 ± 2.10 | 249 ± 61.2 | 133 ± 14.0 | 0.26 ± 0.06 %ID/g | 0.67 ± 0.1 %ID/g | 0.13 ± 0.03 %ID/g | 0.02 %ID/g | 0.07 ± 0.02 %ID/g | 0.19 ± 0.04 %ID/g | 0.23 ± 0.05 %ID/g | 2.83 ± 0.45 %ID/g | 0.09 ± 0.03 %ID/g | 0.21 ± 0.05 %ID/g | 0.52 ± 0.09 %ID/g | 0.09 ± 0.01 %ID/g | 0.12 ± 0.02 %ID/g | 0.16 ± 0.02 %ID/g | 0.65 ± 0.8 %ID/g | tissue uptake at 1 h (in vivo; Spleen uptake): 0.17 ± 0.02 %ID/g; tissue uptake at 1 h (in vivo; Stomach uptake): 0.08 ± 0.05 %ID/g; tissue uptake at 1 h (in vivo; Tail uptake): 0.46 ± 0.1 %ID/g; tissue uptake at 1 h (in vivo; Testes uptake): 0.15 ± 0.03 %ID/g; tissue uptake at 1 h (in vivo; Thyroid uptake): 0.18 ± 0.02 %ID/g; tissue uptake at 1 h (in vivo; Tumor uptake): 21.1 ± 3.62 %ID/g; excreta dose per gram or mL at 1 h (in vivo): 444 ± 192 %ID/g |
| O=C(O)CN1CCN(CC(=O)O)CCN(CC(=O)NC[C@H]2CC[C@H](C(=O)N[C@@H](Cc3c4ccccc4cc4ccccc34)C(=O)NCCCC[C@H](NC(=O)N[C@@H](C[C@@H](F)C(=O)O)C(=O)O)C(=O)O)CC2)CCN(CC(=O)O)CC1 [68Ga-HTK04033, metal not drawn] | 4.38 ± 0.57 | 31.7 ± 5.00 | 5.64 ± 1.37 | 221 ± 53.4 | 138 ± 21.1 | 0.16 ± 0.03 %ID/g | 0.59 ± 0.12 %ID/g | 0.08 ± 0.01 %ID/g | 0.02 %ID/g | 0.1 ± 0.03 %ID/g | 0.18 ± 0.06 %ID/g | 0.2 ± 0.04 %ID/g | 3.31 ± 0.34 %ID/g | 0.04 ± 0.03 %ID/g | 0.29 ± 0.09 %ID/g | 0.5 ± 0.05 %ID/g | 0.09 ± 0.04 %ID/g | 0.15 ± 0.08 %ID/g | 0.13 ± 0.02 %ID/g | 0.1 ± 0.04 %ID/g | tissue uptake at 1 h (in vivo; Spleen uptake): 0.19 ± 0.03 %ID/g; tissue uptake at 1 h (in vivo; Stomach uptake): 0.07 ± 0.03 %ID/g; tissue uptake at 1 h (in vivo; Tail uptake): 0.66 ± 0.5 %ID/g; tissue uptake at 1 h (in vivo; Testes uptake): 0.17 ± 0.05 %ID/g; tissue uptake at 1 h (in vivo; Thyroid uptake): 0.18 ± 0.03 %ID/g; tissue uptake at 1 h (in vivo; Tumor uptake): 18.5 ± 4.05 %ID/g; excreta dose per gram or mL at 1 h (in vivo): 440 ± 211 %ID/g |
| O=C(O)CCC[C@H](NC(=O)N[C@@H](CCCCNC(=O)[C@H](Cc1c2ccccc2cc2ccccc12)NC(=O)Cc1ccc(CNC(=O)CN2CCN(CC(=O)O)CCN(CC(=O)O)CCN(CC(=O)O)CC2)cc1)C(=O)O)C(=O)O [68Ga-HTK04036, metal not drawn] | 3.68 ± 0.41 | 21.0 ± 8.58 | 3.02 ± 1.44 | 139 ± 62.4 | 75.1 ± 28.2 | 0.3 ± 0.16 %ID/g | 0.69 ± 0.35 %ID/g | 0.1 ± 0.03 %ID/g | 0.02 ± 0.01 %ID/g | 0.09 ± 0.05 %ID/g | 0.22 ± 0.12 %ID/g | 0.41 ± 0.23 %ID/g | 5.82 ± 5 %ID/g | 0.06 ± 0.03 %ID/g | 0.48 ± 0.67 %ID/g | 0.55 ± 0.26 %ID/g | 0.11 ± 0.06 %ID/g | 0.13 ± 0.07 %ID/g | 0.18 ± 0.08 %ID/g | 2.08 ± 3.09 %ID/g | tissue uptake at 1 h (in vivo; Spleen uptake): 0.27 ± 0.13 %ID/g; tissue uptake at 1 h (in vivo; Stomach uptake): 0.12 ± 0.11 %ID/g; tissue uptake at 1 h (in vivo; Tail uptake): 0.42 ± 0.18 %ID/g; tissue uptake at 1 h (in vivo; Testes uptake): 0.25 ± 0.14 %ID/g; tissue uptake at 1 h (in vivo; Thyroid uptake): 0.22 ± 0.12 %ID/g; tissue uptake at 1 h (in vivo; Tumor uptake): 12.1 ± 2.15 %ID/g; excreta dose per gram or mL at 1 h (in vivo): 422 ± 163 %ID/g |
| O=C(O)CCC[C@H](NC(=O)N[C@@H](CCCCNC(=O)[C@H](Cc1c2ccccc2cc2ccccc12)NC(=O)Cc1cccc(CNC(=O)CN2CCN(CC(=O)O)CCN(CC(=O)O)CCN(CC(=O)O)CC2)c1)C(=O)O)C(=O)O [68Ga-HTK04037, metal not drawn] | 3.55 ± 0.46 | 26.3 ± 10.5 | 3.02 ± 1.22 | 165 ± 52.9 | 92.2 ± 34.5 | 0.19 ± 0.03 %ID/g | 0.51 ± 0.12 %ID/g | 0.07 ± 0.01 %ID/g | 0.02 %ID/g | 0.06 ± 0.01 %ID/g | 0.15 ± 0.03 %ID/g | 0.28 ± 0.03 %ID/g | 4.47 ± 0.9 %ID/g | 0.07 ± 0.04 %ID/g | 0.2 ± 0.03 %ID/g | 0.46 ± 0.09 %ID/g | 0.08 ± 0.03 %ID/g | 0.11 ± 0.01 %ID/g | 0.14 ± 0.03 %ID/g | 8.45 ± 10 %ID/g | tissue uptake at 1 h (in vivo; Spleen uptake): 0.24 ± 0.05 %ID/g; tissue uptake at 1 h (in vivo; Stomach uptake): 0.12 ± 0.05 %ID/g; tissue uptake at 1 h (in vivo; Tail uptake): 0.41 ± 0.16 %ID/g; tissue uptake at 1 h (in vivo; Testes uptake): 0.18 ± 0.04 %ID/g; tissue uptake at 1 h (in vivo; Thyroid uptake): 0.16 ± 0.03 %ID/g; tissue uptake at 1 h (in vivo; Tumor uptake): 13.1 ± 4.69 %ID/g; excreta dose per gram or mL at 1 h (in vivo): 396 ± 114 %ID/g |

Reference: US11504441B2, “Radiolabeled compounds targeting the prostate-specific membrane antigen” (PROVINCIAL HEALTH SERVICES AUTHORITY, priority 2019, dated 2022)
